Results: article PMC3788124, “Crystal Structure of the Human Short Coiled Coil Protein and Insights into SCOC-FEZ1 Complex Formation” (PLoS ONE, 2013)

B1: Selenomethionine-labelled Strep-tagged L105M SCOC(78-159) (domain or fragment)
chain: not shown
modifications: selenomethionine-labelled
notes: human SCOC, SwissProt entry Q9UIL1 isoform 1, residues 78-159, with L105M; linker between SCOC and the Strep-tag, as in the wild-type construct; Crystallised by in situ proteolysis with subtilisin (1:2000 w/w), so the chain in the crystal may be shorter; the final model comprises residues 86-147 and the Strep-tag is not visible in the electron density; also called L105M SCOC mutant; SCOC_(78-159) …
B2: Strep-tagged SCOC(78-159) R99E (domain or fragment)
chain: not shown
notes: human SCOC, SwissProt entry Q9UIL1 isoform 1, residues 78-159, with R99E; linker between SCOC and the Strep-tag, as in the wild-type construct; also called R99E surface mutant; source: E. coli BL21 (DE3), purified (StrepTrap, Superdex 75); also co-expressed with FEZ1(227-290) in E. coli
B3: Strep-tagged SCOC(78-159) R117E (domain or fragment)
chain: not shown
notes: human SCOC, SwissProt entry Q9UIL1 isoform 1, residues 78-159, with R117E; linker between SCOC and the Strep-tag, as in the wild-type construct; also called R117E surface mutant; source: E. coli BL21 (DE3), purified (StrepTrap, Superdex 75); also co-expressed with FEZ1(227-290) in E. coli
B4: Strep-tagged SCOC(78-159) N125L/N132V (domain or fragment)
chain: not shown
notes: human SCOC, SwissProt entry Q9UIL1 isoform 1, residues 78-159, with N125L and N132V; linker between SCOC and the Strep-tag, as in the wild-type construct; Tetramer by SEC-MALLS and native MS; also called tetrameric core mutant; double core mutant N125L/N132V; source: E. coli BL21 (DE3), purified (StrepTrap, Superdex 75); also co-expressed with FEZ1(227-290) in E. coli
B5: Strep-tagged SCOC(78-159) E93V/K97L (domain or fragment, human)
chain: MAMMNADMDAVDAENQVVLEELTRLINQVLELQHTLEDLSARVDAVKEENLKLKSENQVLGQYIENLMSASSVFQTTDTKSKRKLVPRGS
notes: human SCOC, SwissProt entry Q9UIL1 isoform 1, residues 78-159, with E93V and K97L; linker between SCOC and the Strep-tag, as in the wild-type construct; Trimer by SEC-MALLS and native MS; also called trimeric SCOC mutant; double core mutant E93V/K97L; source: E. coli BL21 (DE3), purified (StrepTrap, Superdex 75); also co-expressed with FEZ1(227-290) in E. coli
B6: C-terminal Strep-tagged SCOC(78-159), wild type (domain or fragment)
chain: not shown
notes: human short coiled coil protein (SCOC), SwissProt entry Q9UIL1 isoform 1, residues 78-159; underlined stretch of the printed construct; linker between SCOC and the Strep-tag in the printed construct; Dimer by SEC-MALLS and native MS; also called short coiled coil protein; Strep-SCOC(78-159); source: E. coli BL21 (DE3), purified (StrepTrap, Superdex 75); also co-expressed with FEZ1(227-290) in E. …

Target: the molecule itself
Assay: crystal structure; selenomethionine-labelled L105M SCOC(78-159), 3 mg/ml, with subtilisin 1:2000 (w/w) for in situ proteolysis; hanging drops, 20 °C, 100 mM sodium acetate pH 4.6, 0.7 M 1,6-hexanediol, 10 mM CoCl2

| Protein | binding result |
| --- | --- |
| B1 | binds |

Target: the molecule itself
Assay: SEC-MALLS; SCOC constructs alone; 500 µL of 1.5 mg/ml on Superdex 200 10/300 GL; three measurements for each protein

| Protein | stoichiometry N |
| --- | --- |
| B2 | 2 |
| B3 | 2 |
| B4 | 4 |
| B5 | 3 |
| B6 | 2 |
